Laboratory results: patent US20160053277A1, “Compositions Having Dicamba Decarboxylase Activity and Methods of Use” (PIONEER HI-BRED INTERNATIONAL, INC., priority 2013, published 2016)

B1: 98 (protein)
chain: MAIIDCHGHYTTAPAAHDAFRKAQIAHHDDPQQPAPQYPHISDDALRESIEQHQLRLLRERGADMTIFSPRASTMAHHIGNEAVSQVWTQRCNDLIARVVQLYPHTFIGVCQLPQSPGVPISHSIAELERCVNELGFVGCNLNPDPSGGHWNGVPLTDRAWYPFFEKMVELDVPAMVHVSGSCNANFHATGAHYLNADTTAFMQFLEGDLFRDFPSLRFIIPHGGGAVPYHWGRFRGLADMLGKPPLATHVMRNVFFDTCVYHQPGIDLLFEVIDIDNILFGSEMVGAVRGIDPQTGHYFDDTKRYIDALTISDADKRKVFEGNARRVYPRLDAQLRARGL
modifications: Xanthomonas campestris pv.
B2: 99 (protein, listed as Ralstonia solanacearum)
chain: MAIIDCHGHFTTAPTALEDWRKRQIANLATPALGPSPDDLKISDDALTEAIRANQLRLMQARGSDLTIFSPRASFMAHHIGDFHTSATWAAICNALCHRVSQLFPDHFVGAAMLPQSPGVDIRTCIPELARCIVDYGFVGVNLNPDPSGGHWTSPPLSDPYWFPLYEKLVEYDVPAMIHVSTSCNACFHTTGAHYLNADTTAFMQVLTSDLFRRFPTLKFVIPHGGGAVPYHWGRFRGLAQELKTPPLQEHLLHNVFFDTCVYHQPGIDLLTRVIPVDNILFASEMIGAVRGIDPETGHPFDDTRRYIDQAHTLSAEDRHKIYEGNARRVYPRLDARLKARGR
B3: 7 (protein, listed as Legionella pneumophila)
chain: MAIVDFETHFITEACIDYLTQRQEVPKLVPELNGAYTMCFTPDVSLFHTSALMEELLSLNEQRLAIMDQAGVTIQVLSLTTINGIDSCPGDENKSTALAREVNDQLYSAIQRHPERFKGFASISPYDVKEGVKELERAISQLGFVGWLTHSNFGEDNYLDDKTYWPLLEAAEGLNIPIYLHPNVPIMREFGKYGFALGGSALGFEFDTALCLMRMILGGVFDAFPKLKIMLGHLGETMPFLMERLDHLYRIPDLKAYRPSIQRIPSEVLRQNVYITTSGRFFVPALRYVLEVMGEDRVLFASDYPMESLLDATRFIQDSDLSNQTKQKIFSINAKNLNLI
B4: 101 (protein, listed as Aquifex aeolicus)
chain: MAQKIALCITGASGVIYGIKLLQVLEELDFSVDLVISRNAKVVLKEEHSLTFEEVLKGLKNVRIHEENDFTSPLASGSRLVHYRGVYVVPCSTNTLSCIANGINKNLIHRVGEVALKERVPLVLLVREAPYNEIHLENMLKITRMGGVVVPASPAFYHKPQSIDDMINFVVGKLLDVLRIEHNLYKRWRG
B5: 102 (protein, listed as Lactobacillus plantarum)
chain: MATKTFKTLDDFLGTHFIYTYDNGWEYEWYAKNDHTVDYRIHGGMVAGRWVTDQKADIVMLTEGIYKISWTEPTGTDVALDFMPNEKKLHGTIFFPKWVEEHPEITVTYQNEHIDLMEQSREKYATYPKLVVPEFANITYMGDAGQNNEDVISEAPYKEMPNDIRNGKYFDQNYHRLNK
B6: 103 (protein)
chain: MAMEIPTEEIKFLKKEDVQNIDLNGMSKKERYEIWRRIPKVELHCHLDLTFSAEFFLKWARKYNLQPNMSDDEILDHYLFTKEGKSLAEFIRKAISVSDLYRDYDFIEDLAKWAVIEKYKEGVVLMEFRYSPTFVSSSYGLDVELIHKAFIKGIKNATELLNNKIHVALICISDTGHAAASIKHSGDFAIKHKHDFVGFDHGGREIDLKDHKDVYHSVRDHGLHLTVHAGEDATLPNLNTLYTAINILNVERIGHGIRVSESDELIELVKKKDILLEVCPISNLLLNNVKSMDTHPIRKLYDAGVKVSVNSDDPGMFLSNINDNYEKLYIHLNFTLEEFMIMNNWAFEKSFVSDDVKSELKALYF
modifications: Plasmodium yoelii yoelii
B7: 104 (protein)
chain: MANILQEPIDFLKKEELKNIDLSQMSKKERYKIWKRIPKCELHCHLDLCFSADFFVSCIRKYNLQPNLSDEEVLDYYLFAKGGKSLGEFVEKAIKVADIFHDYEVIEDLAKHAVFNKYKEGVVLMEFRYSPTFVAFKYNLDIELIHQAIVKGIKEVVELLDHKIHVALMCIGDTGHEAANIKASADFCLKHKADFVGFDHGGHEVDLKEYKEIFDYVRESGVPLSVHAGEDVTLPNLNTLYSAIQVLKVERIGHGIRVAESQELIDMVKEKNILLEVCPISNVLLKNAKSMDTHPIRQLYDAGVKVSVNSDDPGMFLTNINDDYEELYTHLNFTLEDFMKMNEWALEKSFMDSNIKDKIKNLYF
modifications: Plasmodium Vivax
B8: 105 (protein)
chain: MAIDFHVHLDLYPDPVAVARACEERQLTVLSVTTTPAAWRGTLALAAGRPHVWTALGFHPEVVSERAADLPWFDRYLPETRFVGEVGLDGSPSLRGTWTQQFAVFQHILRRCEDHGGRILSIHSRRAESEVLNCLEANPRSGTPILHWYSGSVTELRRAISLGCWFSVGPTMVRTQKGAALIRSMPRDRVLTETDGPFLELDGQAALPWDVKSVVEGLSKIWQIPASEVERIVKENVSRLLGTVR
modifications: Deinococcus radiodurans
B9: 106 (protein, listed as Pyrococcus horikoshii)
chain: MAGMKFIKNLHVSKLVIDSMKALINGTIYTSFNPLKKVSGLVISHGKVIYAGDSEVAKKIVELSGGEIVDLKGKYVMPAFFDSHLHLDELGMSLEMVDLRGAKSIEELIQRLKRGKGRIIFGFGWDQDELGEWPTRKELNAIDKPVFIYRKCFHVAVANDKMLELLNLTPSKDFDEDTGIIKEKSLEEARKVINERVLTVEDYVYYIKRAQEHLLDLGVKSVSFMSVNEKALRALFYLEREGKLSINVFAYVTPEVLDKLESIGLGRFQGNRLTIAGVKLFTDGSLGARTALLSKPYSDDPSTSGQLVMEREELIRITEKARSLGLDVAIHAIGDKALDVALDVFETTGFPGRIEHASLVRDDQLERVKNLKVRLSVQPHFIISDWWIVERVGEERVKWVYRFKDLMKVAELGFSTDSPIEPADPWLTVDAAVNRGKGKVKLYELTKDQALDIKDALHSYTYGSARVSLASDIGKLEPGFKAEYIILDRDPLVVK
B10: 107 (protein, listed as Rhodopseudomonas palustris)
chain: MAIIDIHGHYTTAPKALEDWRNRQIAGIKDPSVMPKVSELKISDDELQASIIENQLKKMQERGSDLTVFSPRASFMAHHIGDFNVSSTWAAICNELCYRVSQLFPDNFIGAAMLPQSPGVDPKTCIPELEKCVKEYGFVAINLNPDPSGGHWTSPPLTDRIWYPIYEKMVELEIPAMIHVSTSCNTCFHTTGAHYLNADTTAFMQCVAGDLFKDFPELKFVIPHGGGAVPYHWGRFRGLAQEMKKPLLEDHVLNNIFFDTCVYHQPGIDLLNTVIPVDNVLFASEMIGAVRGIDPRTGFYYDDTKRYIEASTILTPEEKQQIYEGNARRVYPRLDAALKAKGK

Experiment: Saturation mutagenesis of SEQ ID NO:109: dicamba decarboxylation activity of point mutants (carbon dioxide released)
Settings: decarboxylation activity (carbon dioxide released) of point mutant compared with unmutated backbone protein; backbone SEQ ID NO: 109

Molecule | Fold Activity
B1 | 2.3
B2 | 1.7
B3 | 1.3
B4 | 1.8
B5 | 2.6
B6 | 1.7
B7 | 2.1
B8 | 0.9
B9 | 0.8
B10 | 1.7

Experiment: 14C assay with IPTG-induced recombinant E. coli cells: 14CO2 captured from [14C]-carboxyl-labeled dicamba
Settings: dicamba decarboxylation activity of the protein of the given SEQ ID NO; High / Low / No

Molecule | Enzymatic Detection level
B1 | No
B2 | No
B3 | No
B4 | No
B5 | No
B6 | No
B7 | No
B8 | No
B9 | No
B10 | No

Same assay, conditions: induced recombinant E. coli cells, [14C]-carboxyl-labeled dicamba, 14CO2 capture

Molecule | Dicamba Decarboxylase Activity
B1 | No
B2 | No
B3 | No
B4 | No
B5 | No
B6 | No
B7 | No
B8 | No
B9 | No
B10 | No
